What all share (experiment): FP
Assay [1] has as its target RP1, fluorescein-labelled reference peptide, a SOS1 derivative encompassing part of P3 (human, UniProt Q07889, fluorescein (FITC) label, position not stated).
The target of assay [2] is RP2, fluorescein-labelled reference peptide from the N-terminal extension of the RHO GTPase WRCH1/RHOU (human, UniProt Q7L0Q8, fluorescein (FITC) label, position not stated).
Assay [3] has as its target P7, fluorescein-labelled proline-rich peptide from the SOS1 proline-rich domain (human, UniProt Q07889, fluorescein (FITC) label, position not stated).
Assay [4] deals with P4, fluorescein-labelled proline-rich peptide from the SOS1 proline-rich domain (human, UniProt Q07889, fluorescein (FITC) label, position not stated).
The target of assay [5] is P2, fluorescein-labelled proline-rich peptide from the SOS1 proline-rich domain (human, UniProt Q07889, fluorescein (FITC) label, position not stated).
Assay [6] deals with P3, fluorescein-labelled proline-rich peptide from the SOS1 proline-rich domain (human, UniProt Q07889, fluorescein (FITC) label, position not stated).
In assay [7] the target is P9, fluorescein-labelled proline-rich peptide from the SOS1 proline-rich domain (human, UniProt Q07889, fluorescein (FITC) label, position not stated).

B1: NCK1-2 SH3 domain, GST cleaved (domain or fragment)
chain: DLNMPAYVKFNYMAEREDELSLIKGTKVIVMEKCSDGWWRGSYNGQVGWFPSNYVTEEGD
In assay [1], B1 gave a Kd of 2 µM.

B2: NCK1-3, third SH3 domain of NCK1, GST cleaved (domain or fragment)
chain: QVLHVVQALYPFSSSNDEELNFEKGDVMDVIEKPENDPEWWKCRKINGMVGLVPKNYVTVMQN
Consider B2, for which the Kd in assay [1] was found to be 24.6 µM; in assay [2], 2.5 µM.

B3: ARHGEF30 (Obscurin/OBSCN) SH3 domain, GST cleaved (domain or fragment)
chain: EIFDIYVVTADYLPLGAEQDAITLREGQYVEVLDAAHPLRWLVRTKPTKSSPSRQGWVSPAYLDRRLK
Regarding B3, in assay [3], binding was characterised by a dissociation constant (Kd) of 8.9 µM.

B4: ABI1 SH3 domain, GST cleaved (domain or fragment)
chain: NYIEKVVAIYDYTKDKDDELSFMEGAIIYVIKKNDDGWYEGVCNRVTGLFPGNYVESIMH
On to B4, for which the dissociation constant (Kd) in assay [4] amounted to 24.6 µM; in assay [5], 60.7 µM.

B5: DLG2 SH3 domain, GST cleaved (domain or fragment)
chain: KRSLYVRAMFDYDKSKDSGLPSQGLSFKYGDILHVINASDDEWWQARRVMLEGDSEEMGVIPSKRRVERKE
B5: in assay [3], the Kd is 58.5 µM.

B6: ARHGAP12 SH3 domain, GST cleaved (domain or fragment)
chain: PGQVYIEVEYDYEYEAKDRKIVIKQGERYILVKKTNDDWWQVKPDENSKAFYVPAQYVKEVTR
Consider B6, for which the results for the Kd in assay [1], in assay [2] and in assay [6] were 16.7 µM, 15.5 µM and 13.8 µM, respectively.

B7: BIN1 SH3 domain, GST cleaved (domain or fragment)
chain: GFMFKVQAQHDYTATDTDELQLKAGDVVLVIPFQNPEEQDEGWLMGVKESDWNQHKELEKCRGVFPENFTERVP
Turning to B7, the equilibrium dissociation constant (Kd) in assay [7] is 47 µM; in assay [2] it was 48 µM; in assay [3], 12 µM.

B8: ABL2 SH3 domain, GST cleaved (domain or fragment)
chain: SDPNLFVALYDFVASGDNTLSITKGEKLRVLGYNQNGEWSEVRSKNGQGWVPSNYITPVNS
On to B8, for which the dissociation constant Kd in assay [4] stood at 125 µM; in assay [1], 11 µM; in assay [3], 67.3 µM.

One may read the Kd as the free concentration of one partner at which half of the binding sites on the other are occupied at equilibrium, for simple one-to-one binding. The low end stands for higher affinity, the high end for lower affinity.

The values above are taken from PMC10814857 (2024).
